Results from patent US8088892B2, “Inhibitors of proteins from the Rho-GEF family” (Centre National de la Recherche Scientifique (C.N.R.S.), priority 2002, dated 2012).

T1: Dbl (Homo sapiens, UniProt P10911)
T1 construct: made in house
T1 sequence (P10911 495-826): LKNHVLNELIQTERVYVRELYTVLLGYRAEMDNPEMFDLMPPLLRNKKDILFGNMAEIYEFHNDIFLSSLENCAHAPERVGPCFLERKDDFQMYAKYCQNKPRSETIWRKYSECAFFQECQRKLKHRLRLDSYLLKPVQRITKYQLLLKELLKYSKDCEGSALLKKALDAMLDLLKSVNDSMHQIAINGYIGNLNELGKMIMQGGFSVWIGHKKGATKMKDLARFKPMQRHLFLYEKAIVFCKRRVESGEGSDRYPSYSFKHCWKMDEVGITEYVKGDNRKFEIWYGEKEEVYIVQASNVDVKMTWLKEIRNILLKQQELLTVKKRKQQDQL


Experiments:
[1] = tested on: ectopically expressed TrioGEFD2 in PC12 cells; assay: NGF-induced neurite outgrowth in PC12 cells expressing TrioGEFD2; type: cell-based; conditions: PC12 co-transfected with TrioGEFD2, NGF 50 ng/ml 16 hours
Description: FIG. 5C represents the inhibition by TRIPα of the TrioGEFD2 effect in neuronal morphology. Immunofluorescence images of PC12 cells co-transfected with HA-TrioGEFD2 and either GFP-TRIPα (panels d, e, f) or GFP alone panels a, b, c) are shown. After 48 hours of expression, cells were treated for 16 hours with NGF (nerve growth factor) (50 ng/ml) and fixed. Expression of GFP and GFP-TRIPα was directly visualised (a, d) whereas overexpressed TrioGEFD2 was detected using the 12CA5 anti-HA antibody followed by AMCA-conjugated anti-mouse IgG (b, e). Filamentous actin was stained with Rhodamine-conjugated Phalloidin (c, f). Scale bar: 20 μm.
Cells were transfected with HA-tagged TrioGEFD2 (left side of the figure), myc-tagged KalGEFD2 (middle of the figure) or RhoAV14 (a constitutively active mutant of RhoA) (right side of the figure), and with either GFP-TRIPα (white bars), GFP-TRIPβ (hatched bars) or GFP alone (black bars). Cells were processed as described in FIG. 5C and the number of co-transfected cells with neurites was counted.
Numerous reports have established Rho-GTPases as key regulators of neuronal morphology (Luo, 2000). In neuronal cell lines, activation of RhoG, Rac and Cdc42 induces neurite outgrowth, while RhoA stimulation antagonises this effect by promoting neurite retraction (Katoh et al., 2000; Kozma et al., 1997; Yamaguchi et al., 2001). The PC12 cell line is a useful cellular model for studying Nerve Growth Factor (NGF)-induced neuronal differentiation. PC12-E2 cells were plated on collagen-coated 12 mm coverslips as described previously (Estrach et al., 2002) and transfected with the Lipofectamine Plus reagent (Life Technologies) according to the manufacturer's instructions. After transfection and differentiation with NGF (Promega, 50 ng/ml in DMEM medium supplemented with 0.5% horse serum (HS)) for 16 hours, PC12 cells were fixed and permeabilised as described (Estrach et al., 2002). […] Images were recorded using a Hamamatsu CCD camera. All transfections were repeated at least three times, and an average of 200 cells was counted each time. […]

[2] = molecular target: T1, Dbl; assay: In vitro GEF assay on RhoA; type: biochemical; design: key to in vitro GEF assay (inhibition): +++^2 and +^2 represent respectively a full and a partial (see FIG. 3) inhibitory effect; +++^2 and +^2 represent respectively a full and a partial (see FIG. 3) inhibitory effect; −−^2 represents a lack of inhibitory effect
Excerpt: An in vitro guanine nucleotide exchange (GEF) assay was used to test whether the TrioGEFD2-binding aptamers could inhibit the catalytic activity of TrioGEFD2 towards RhoA. For this purpose, the aptamers TRIAPα, TRIAPβ and TRIAPγ (including the Trx gene) were excised from pEG202 as EcoRI/NotI fragments and cloned into pGEX4T1 EcoRI/NotI. The aptamers were then expressed and purified from bacteria as GST fusion proteins, using standard procedures (Smith and Johnson, 1988). GTPase-GST fusion proteins were prepared, loaded with [^3H]GDP and the guanine nucleotide release assays were performed as described (Debant et al., 1996), using recombinant GST-TrioGEFD2 (a.a. 1848-2298), TrioDH2 (a.a. 1848-2096). For each point, 0.3 μM GTPase was mixed with or without 0.4 μM GEF in presence of non-labeled GTP, and the reaction mix was filtered after 0 min and 15 mm reaction at 25° C. The catalytic activity of TrioGEFD2 was thus measured by the decrease of the GTPase-associated radioactivity. The results are expressed as the ratio “exchange after 15 min over exchange after 0 min” (% bound [^3H]GDP-RhoA). To measure the effect of the aptamers on the exchange activity, a 20-fold molar excess of GST-TRIAPs was pre-incubated with GEFD2 (or GEFD1) for 30 min on ice before the exchange assay was carried out. For each experiment, data were obtained in triplicate. […]

| in vitro GEF assay (inhibition) ([2]; RhoGEF Dbl) | Effect on Dbl exchange activity ([2]; data not shown) | Molecule | Reversion of TrioGEFD2 inhibition of NGF-induced neurite outgrowth [1] |
| --- | --- | --- | --- |
|  |  | AREGADGAICGYNLATLVMLGPSERVFCPLCEPCSSDIYELM [TRIPα, 42-amino acid peptide corresponding to the variable region of TRIAPα] | only the TrioGEFD2 effect is reversed |
| −−^2 | not affected | TRIAPα: aptamer of 154 amino acids: variable region of 42 amino acids inserted into the thioredoxin protein; tested as GST fusion (protein) MSDKIIHLTDDSFDTDVLKADGAILVDFWAEWCGPAREGADGAICGYNLATLVMLGPSERVFCPLCEPCSSDIYELMGPCKMIAPILDEIADEYQGKLTVAKLNIDQNPGTAPKYGIRGIPTLLLFKNGEVASATKVGALSKGQLKEFLDANLA |  |
